molecular target: Hck (UniProt P08631); assay: phosphorylation enrichment, bacterial display (enrichment ratio); higher = better substrate or ligand; peptides without Tyr show the background
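Note: 11-residue human phosphosite peptides and single-mutation variants displayed on the E. coli surface, counted by deep sequencing, each peptide's frequency after selection divided by its frequency in the unselected input library; frequency after pTyr selection over input frequency; kinase dosed for 20-30% of maximal phosphorylation in three min.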

Sequence of Hck (P08631 whole entry, looked up): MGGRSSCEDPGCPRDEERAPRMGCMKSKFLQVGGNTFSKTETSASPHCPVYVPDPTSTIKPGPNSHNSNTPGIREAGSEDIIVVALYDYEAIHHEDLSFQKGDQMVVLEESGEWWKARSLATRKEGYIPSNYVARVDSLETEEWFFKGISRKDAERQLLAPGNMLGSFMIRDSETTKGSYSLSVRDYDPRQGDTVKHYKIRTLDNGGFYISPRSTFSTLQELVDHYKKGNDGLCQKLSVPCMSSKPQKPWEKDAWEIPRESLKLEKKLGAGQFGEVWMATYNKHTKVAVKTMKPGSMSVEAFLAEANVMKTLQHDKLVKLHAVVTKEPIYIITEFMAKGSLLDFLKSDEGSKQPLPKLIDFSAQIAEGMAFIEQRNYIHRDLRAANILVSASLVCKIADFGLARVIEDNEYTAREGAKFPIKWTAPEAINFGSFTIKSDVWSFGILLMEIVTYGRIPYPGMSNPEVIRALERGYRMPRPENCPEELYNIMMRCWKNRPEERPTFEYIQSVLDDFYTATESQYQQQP

Row | Sequence | phosphorylation enrichment
1 | VTAALYGCLYE [BTD_Y536_R538C] | 4.01
2 | FSKQIYKGMVA [PCDH15_Y931_R929Q] | 0.384
3 | QKPLDYYRVNL [GALE_Y104] | 0.908
4 | FDDGKYVFVVT [RPS6KA3_Y488_YF] | 0.572
5 | NGQALYAACQT [XDH_Y1092_V1091L] | 4.99
6 | ISRASYYRKGG [ALK_Y1282_Y1278S] | 0.496
7 | CTAIHYNFMCN [TP53_Y234_T231A_YF] | 0.597
8 | VGTKRYMAPEV [ACVRL1_Y375] | 0.407
9 | RTLIRYANLGN [BEST1_Y131] | 0.481
10 | TVSTGYTQPQP [SARG_Y259_R258G] | 0.47
11 | ATCKAYGQALA [TKT_Y321_R318C] | 0.431
12 | TVSRPYSFIEF [SEC22B_Y110] | 0.705
13 | PQAVTYAKVKH [LILRB4_Y360] | 0.509
14 | RIVEIYSRRLR [GCH1_Y175_Q180R] | 0.736
15 | DEEPPDRGPFC [SASH1_Y551_Y551D] | 0.496
16 | LVMFISAIFGM [SCN1A_Y1684_Y1684S] | 0.804
17 | ANNEYYFRVCA | 0.657

Row | Sequence | phosphorylation enrichment
18 | VKRNRYKDILP [PTPN12_Y64_K61R] | 0.579
19 | LSIWPYLQKID [MFSD8_Y63_M58L] | 0.566
20 | FGPPQYNMQFS [ERBB2IP_Y977_I979M_YF] | 0.52
21 | EGWQVYRLGAR [MISP_Y95] | 1.12
22 | HPHECYAKVFD [ALB_Y394_D389H] | 0.654
23 | SHNELYFEAAE [VANGL1_Y344_E347A_YF] | 0.656
24 | VNKLVYENING [FRS2_Y306] | 2.67
25 | KGLKVYVNGTL [ADGRD1_Y183_E178K] | 0.441
26 | GSERDYTYDEL [EIF2S2_Y174_E177D] | 0.849
27 | KINKMYSDRAM | 0.396
28 | SGSIHYSHVPR [GLB1_Y57_R59H] | 0.451
29 | SRDDFYETIAM [NPY1R_Y347_D346Y_YF] | 2.04
30 | FLENFYDLEKD [MMP3_Y42_K45E_YF] | 1.39
31 | TTPAVYARVAK [CTRB2_Y246] | 2.77
32 | RSRSPYSSRHS [CDK13_Y415] | 0.548
33 | YMRGMYFRMTD [PLA2G6_Y541_K545T] | 0.578

molecular target: Jak2 (UniProt O60674); assay: as above
Sequence (O60674 whole entry, looked up): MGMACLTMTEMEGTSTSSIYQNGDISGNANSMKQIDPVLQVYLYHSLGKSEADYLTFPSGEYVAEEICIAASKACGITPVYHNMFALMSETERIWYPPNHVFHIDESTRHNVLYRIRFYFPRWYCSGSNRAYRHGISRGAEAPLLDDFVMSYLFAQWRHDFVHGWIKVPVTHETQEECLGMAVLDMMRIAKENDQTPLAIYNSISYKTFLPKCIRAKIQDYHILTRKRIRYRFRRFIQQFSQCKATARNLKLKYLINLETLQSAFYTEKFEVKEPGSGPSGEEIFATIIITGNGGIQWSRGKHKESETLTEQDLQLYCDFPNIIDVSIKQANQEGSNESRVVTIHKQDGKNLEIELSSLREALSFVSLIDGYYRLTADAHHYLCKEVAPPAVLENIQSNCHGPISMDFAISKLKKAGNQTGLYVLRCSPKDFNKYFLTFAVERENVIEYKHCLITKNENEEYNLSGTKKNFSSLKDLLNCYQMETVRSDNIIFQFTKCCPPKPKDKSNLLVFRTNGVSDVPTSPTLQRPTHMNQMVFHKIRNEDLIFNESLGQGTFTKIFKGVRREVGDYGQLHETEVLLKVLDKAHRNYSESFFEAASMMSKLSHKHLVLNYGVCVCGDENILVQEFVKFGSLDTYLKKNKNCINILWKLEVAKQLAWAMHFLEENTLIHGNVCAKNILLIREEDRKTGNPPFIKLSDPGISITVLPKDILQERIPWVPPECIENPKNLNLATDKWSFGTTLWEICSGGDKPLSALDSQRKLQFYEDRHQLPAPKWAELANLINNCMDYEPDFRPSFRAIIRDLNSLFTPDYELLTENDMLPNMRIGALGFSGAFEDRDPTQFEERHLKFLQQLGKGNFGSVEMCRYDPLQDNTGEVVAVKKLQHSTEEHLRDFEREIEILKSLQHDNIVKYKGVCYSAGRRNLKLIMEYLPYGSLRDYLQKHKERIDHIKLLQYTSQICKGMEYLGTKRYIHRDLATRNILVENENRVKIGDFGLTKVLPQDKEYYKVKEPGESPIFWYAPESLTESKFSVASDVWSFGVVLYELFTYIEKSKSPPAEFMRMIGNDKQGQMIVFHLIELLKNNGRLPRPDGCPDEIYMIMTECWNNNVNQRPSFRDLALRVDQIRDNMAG

Row | Sequence | phosphorylation enrichment
34 | VTAALYGCLYE [BTD_Y536_R538C] | 1.24
35 | FSKQIYKGMVA [PCDH15_Y931_R929Q] | 0.472
36 | QKPLDYYRVNL [GALE_Y104] | 20.5
37 | FDDGKYVFVVT [RPS6KA3_Y488_YF] | 1.46
38 | NGQALYAACQT [XDH_Y1092_V1091L] | 0.687
39 | ISRASYYRKGG [ALK_Y1282_Y1278S] | 0.51
40 | CTAIHYNFMCN [TP53_Y234_T231A_YF] | 0.863
41 | VGTKRYMAPEV [ACVRL1_Y375] | 0.637
42 | RTLIRYANLGN [BEST1_Y131] | 0.793
43 | TVSTGYTQPQP [SARG_Y259_R258G] | 0.508
44 | ATCKAYGQALA [TKT_Y321_R318C] | 0.645
45 | TVSRPYSFIEF [SEC22B_Y110] | 0.848
46 | PQAVTYAKVKH [LILRB4_Y360] | 0.577
47 | RIVEIYSRRLR [GCH1_Y175_Q180R] | 0.619
48 | DEEPPDRGPFC [SASH1_Y551_Y551D] | 0.952
49 | LVMFISAIFGM [SCN1A_Y1684_Y1684S] | 1.77
50 | ANNEYYFRVCA | 1.53

Row | Sequence | phosphorylation enrichment
51 | VKRNRYKDILP [PTPN12_Y64_K61R] | 0.528
52 | LSIWPYLQKID [MFSD8_Y63_M58L] | 1.43
53 | FGPPQYNMQFS [ERBB2IP_Y977_I979M_YF] | 0.49
54 | EGWQVYRLGAR [MISP_Y95] | 0.697
55 | HPHECYAKVFD [ALB_Y394_D389H] | 1.3
56 | SHNELYFEAAE [VANGL1_Y344_E347A_YF] | 0.781
57 | VNKLVYENING [FRS2_Y306] | 0.539
58 | KGLKVYVNGTL [ADGRD1_Y183_E178K] | 0.923
59 | GSERDYTYDEL [EIF2S2_Y174_E177D] | 0.999
60 | KINKMYSDRAM | 0.419
61 | SGSIHYSHVPR [GLB1_Y57_R59H] | 0.6
62 | SRDDFYETIAM [NPY1R_Y347_D346Y_YF] | 1.23
63 | FLENFYDLEKD [MMP3_Y42_K45E_YF] | 1.21
64 | TTPAVYARVAK [CTRB2_Y246] | 0.464
65 | RSRSPYSSRHS [CDK13_Y415] | 0.472
66 | YMRGMYFRMTD [PLA2G6_Y541_K545T] | 1.41

molecular target: EPHB2 (UniProt P29323); assay: as above
Sequence (P29323 whole entry, looked up): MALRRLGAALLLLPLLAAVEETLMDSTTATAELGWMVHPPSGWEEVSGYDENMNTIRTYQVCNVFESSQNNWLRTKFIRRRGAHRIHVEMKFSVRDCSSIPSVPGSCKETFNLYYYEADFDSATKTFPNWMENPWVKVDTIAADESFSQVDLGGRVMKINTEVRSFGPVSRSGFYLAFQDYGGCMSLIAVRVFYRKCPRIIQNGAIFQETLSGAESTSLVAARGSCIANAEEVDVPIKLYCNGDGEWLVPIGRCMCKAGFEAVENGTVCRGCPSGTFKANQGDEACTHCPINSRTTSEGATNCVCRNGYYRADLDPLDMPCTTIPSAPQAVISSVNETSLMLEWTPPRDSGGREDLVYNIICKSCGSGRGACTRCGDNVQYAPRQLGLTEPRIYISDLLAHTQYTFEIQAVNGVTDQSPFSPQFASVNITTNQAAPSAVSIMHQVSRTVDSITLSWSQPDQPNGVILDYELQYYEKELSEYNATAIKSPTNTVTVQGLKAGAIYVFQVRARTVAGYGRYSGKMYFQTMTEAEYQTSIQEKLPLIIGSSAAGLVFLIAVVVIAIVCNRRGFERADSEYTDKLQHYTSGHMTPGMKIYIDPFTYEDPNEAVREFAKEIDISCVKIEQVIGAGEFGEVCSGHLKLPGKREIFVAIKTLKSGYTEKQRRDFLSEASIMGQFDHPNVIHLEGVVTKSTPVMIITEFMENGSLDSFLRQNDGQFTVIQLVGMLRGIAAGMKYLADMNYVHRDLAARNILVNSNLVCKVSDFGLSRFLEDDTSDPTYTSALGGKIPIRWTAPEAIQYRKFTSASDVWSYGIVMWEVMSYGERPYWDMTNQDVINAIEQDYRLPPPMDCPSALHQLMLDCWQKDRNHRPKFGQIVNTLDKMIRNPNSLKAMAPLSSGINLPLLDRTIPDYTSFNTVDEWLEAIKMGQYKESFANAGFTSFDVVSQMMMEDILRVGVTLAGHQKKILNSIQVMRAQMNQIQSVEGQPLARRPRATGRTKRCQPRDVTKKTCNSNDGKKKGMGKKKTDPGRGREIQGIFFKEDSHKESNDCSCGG

Row | Sequence | phosphorylation enrichment
67 | VTAALYGCLYE [BTD_Y536_R538C] | 1.47
68 | FSKQIYKGMVA [PCDH15_Y931_R929Q] | 0.342
69 | QKPLDYYRVNL [GALE_Y104] | 2.35
70 | FDDGKYVFVVT [RPS6KA3_Y488_YF] | 0.545
71 | NGQALYAACQT [XDH_Y1092_V1091L] | 9.92
72 | ISRASYYRKGG [ALK_Y1282_Y1278S] | 0.428
73 | CTAIHYNFMCN [TP53_Y234_T231A_YF] | 0.526
74 | VGTKRYMAPEV [ACVRL1_Y375] | 0.428
75 | RTLIRYANLGN [BEST1_Y131] | 0.666
76 | TVSTGYTQPQP [SARG_Y259_R258G] | 0.374
77 | ATCKAYGQALA [TKT_Y321_R318C] | 0.446
78 | TVSRPYSFIEF [SEC22B_Y110] | 0.403
79 | PQAVTYAKVKH [LILRB4_Y360] | 0.286
80 | RIVEIYSRRLR [GCH1_Y175_Q180R] | 0.654
81 | DEEPPDRGPFC [SASH1_Y551_Y551D] | 0.596
82 | LVMFISAIFGM [SCN1A_Y1684_Y1684S] | 1.07
83 | ANNEYYFRVCA | 0.759

Row | Sequence | phosphorylation enrichment
84 | VKRNRYKDILP [PTPN12_Y64_K61R] | 0.695
85 | LSIWPYLQKID [MFSD8_Y63_M58L] | 0.759
86 | FGPPQYNMQFS [ERBB2IP_Y977_I979M_YF] | 0.427
87 | EGWQVYRLGAR [MISP_Y95] | 0.439
88 | HPHECYAKVFD [ALB_Y394_D389H] | 0.441
89 | SHNELYFEAAE [VANGL1_Y344_E347A_YF] | 0.733
90 | VNKLVYENING [FRS2_Y306] | 0.75
91 | KGLKVYVNGTL [ADGRD1_Y183_E178K] | 0.576
92 | GSERDYTYDEL [EIF2S2_Y174_E177D] | 0.879
93 | KINKMYSDRAM | 0.377
94 | SGSIHYSHVPR [GLB1_Y57_R59H] | 0.451
95 | SRDDFYETIAM [NPY1R_Y347_D346Y_YF] | 0.68
96 | FLENFYDLEKD [MMP3_Y42_K45E_YF] | 0.546
97 | TTPAVYARVAK [CTRB2_Y246] | 0.505
98 | RSRSPYSSRHS [CDK13_Y415] | 0.614
99 | YMRGMYFRMTD [PLA2G6_Y541_K545T] | 0.566

system: Fer (mouse); assay: as above

Row | Sequence | phosphorylation enrichment
100 | VTAALYGCLYE [BTD_Y536_R538C] | 2.67
101 | FSKQIYKGMVA [PCDH15_Y931_R929Q] | 0.331
102 | QKPLDYYRVNL [GALE_Y104] | 0.81
103 | FDDGKYVFVVT [RPS6KA3_Y488_YF] | 0.513
104 | NGQALYAACQT [XDH_Y1092_V1091L] | 6.91
105 | ISRASYYRKGG [ALK_Y1282_Y1278S] | 0.473
106 | CTAIHYNFMCN [TP53_Y234_T231A_YF] | 0.461
107 | VGTKRYMAPEV [ACVRL1_Y375] | 0.395
108 | RTLIRYANLGN [BEST1_Y131] | 0.737
109 | TVSTGYTQPQP [SARG_Y259_R258G] | 0.513
110 | ATCKAYGQALA [TKT_Y321_R318C] | 0.484
111 | TVSRPYSFIEF [SEC22B_Y110] | 11.3
112 | PQAVTYAKVKH [LILRB4_Y360] | 0.424
113 | RIVEIYSRRLR [GCH1_Y175_Q180R] | 1.15
114 | DEEPPDRGPFC [SASH1_Y551_Y551D] | 0.665
115 | LVMFISAIFGM [SCN1A_Y1684_Y1684S] | 1.33
116 | ANNEYYFRVCA | 0.469

Row | Sequence | phosphorylation enrichment
117 | VKRNRYKDILP [PTPN12_Y64_K61R] | 0.49
118 | LSIWPYLQKID [MFSD8_Y63_M58L] | 0.577
119 | FGPPQYNMQFS [ERBB2IP_Y977_I979M_YF] | 0.306
120 | EGWQVYRLGAR [MISP_Y95] | 0.396
121 | HPHECYAKVFD [ALB_Y394_D389H] | 0.624
122 | SHNELYFEAAE [VANGL1_Y344_E347A_YF] | 0.476
123 | VNKLVYENING [FRS2_Y306] | 3.63
124 | KGLKVYVNGTL [ADGRD1_Y183_E178K] | 0.452
125 | GSERDYTYDEL [EIF2S2_Y174_E177D] | 0.617
126 | KINKMYSDRAM | 0.336
127 | SGSIHYSHVPR [GLB1_Y57_R59H] | 0.606
128 | SRDDFYETIAM [NPY1R_Y347_D346Y_YF] | 7.71
129 | FLENFYDLEKD [MMP3_Y42_K45E_YF] | 0.433
130 | TTPAVYARVAK [CTRB2_Y246] | 0.383
131 | RSRSPYSSRHS [CDK13_Y415] | 0.439
132 | YMRGMYFRMTD [PLA2G6_Y541_K545T] | 0.481

— the supplement of paper PMC10065799, “High-throughput profiling of sequence recognition by tyrosine kinases and SH2 domains using bacterial peptide display” (eLife, 2023)
